# Article PMC4866044
# Legend:
# [1] = target: HA-RanBP2 mFG1/2, full-length (human) (UniProt P49792); experiment: co-IP; αHA-agarose immunoprecipitation from nocodazole-arrested HEK293T cells depleted of endogenous RanBP2 by siRNA and transfected with HA-RanBP2 constructs; Crm1 blot normalised to HA-RanBP2, three biological replicates
# Cy3-labelled Crm1 = Cy3-labelled Crm1 (UniProt O14980); experiment: MST; conditions: Cy3-labelled Crm1 20 nM; RanBP2-3/4 fragments 0.3 nM-10 μM; no RanQ69L; laser-power 70%, LED-power 20%; parent: est. 0.94; read off a plot
Substance,reduction of co-immunoprecipitated Crm1 against wild-type HA-RanBP2 [1],"other: fraction of bound Crm1-Cy3 at the highest RanBP2-3/4 concentration (10,000 nM) (Cy3-labelled Crm1)"
"Crm1, endogenous (HEK293T) (from UniProt O14980 1-1071) (natural protein)",40%,
"RanBP2-3/4-His (aa 2,304–3,062), free fragment (from UniProt P49792) mFG12 (= mFG1/2, 11 F to S mutations in both FG-repeat patches; positions not printed)",,0.04
